Results reported in patent publication US20040146931.

System: Gal11P-P53zf zinc finger (artificial)
Assay: cell_activity
Settings: EGFP over control, in vivo site selection

| Sequence | binding [fold] | binding (matches the consensus) [fold] |
| --- | --- | --- |
| CGGGACACGGG (double strand) [in vivo selected P53zf site 3] | > 2 | – |
| CGGGACACGTG (double strand) [in vivo selected P53zf site 1] | – | > 2 |
| CGGGACATGTG (double strand) [in vivo selected P53zf site 2] | > 2 | – |
